This is an account of results in PMC10810270, “Molecular mechanism of specific DNA sequence recognition by NRF1” (Nucleic Acids Research, 2023).

Series [1] addresses T1, NRF1 DD-DBD (human, UniProt Q16656 54-284).
T1 sequence: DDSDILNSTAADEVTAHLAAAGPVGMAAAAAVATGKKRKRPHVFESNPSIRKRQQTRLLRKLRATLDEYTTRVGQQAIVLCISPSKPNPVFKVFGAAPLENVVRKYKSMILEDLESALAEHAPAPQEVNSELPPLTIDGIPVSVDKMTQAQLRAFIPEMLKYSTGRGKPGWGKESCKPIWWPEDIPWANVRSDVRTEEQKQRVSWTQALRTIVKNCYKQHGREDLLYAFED
The series can be described thus: ITC; ITC: 20 mM Hepes pH 7.0, 150 mM NaCl, 25 C; protein 20-30 uM, dsDNA 500-600 uM. To be noted: protein: recombinant, tags: N-terminal His6 removed by TEV (pET28-MHL), chain copies: 2, blunt. In general terms: ITC needs no label: the signal is the heat of the interaction.

Series [2] deals with the molecule itself. The series can be described thus: SEC-MALS; HPLC-MALS, WTC-015S5 column, 50 mM PBS and 150 mM NaCl, 0.5 mL/min; oligomeric state of NRF1 fragments without DNA.
Series [3] deals with T1, NRF1 DD-DBD. As to the kind of experiment: ITC; mean of listed repeats 0.34 and 0.25; ITC: 20 mM Hepes pH 7.0, 150 mM NaCl, 25 C; protein 20-30 uM, dsDNA 500-600 uM. As to conditions: protein: recombinant; tags: N-terminal His6 removed by TEV (pET28-MHL); chain copies: 2; blunt; self-complementary.
The target in series [4] is T2, NRF1 DBD (human, UniProt Q16656 177-284).
T2 sequence: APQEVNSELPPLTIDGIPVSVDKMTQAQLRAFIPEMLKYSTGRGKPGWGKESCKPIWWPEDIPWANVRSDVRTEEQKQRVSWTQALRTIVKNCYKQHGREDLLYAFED
As to the kind of experiment: crystal structure; ITC: 20 mM Hepes pH 7.0, 150 mM NaCl, 25 C; protein 20-30 uM, dsDNA 500-600 uM. To be noted: protein: recombinant; tags: N-terminal His6 removed by TEV (pET28-MHL); chain copies: 2; blunt; self-complementary.

The target of series [5] is T2, NRF1 DBD. The series can be described thus: ITC; ITC: 20 mM Hepes pH 7.0, 150 mM NaCl, 25 C; protein 20-30 uM, dsDNA 500-600 uM. As to conditions: protein: recombinant; tags: N-terminal His6 removed by TEV (pET28-MHL); chain copies: 2; blunt; self-complementary.
Series [6] has as its target T3, NRF1 R206A (human, UniProt Q16656 54-284, R206A).
T3 sequence: T1 sequence with R153A
As to the kind of experiment: ITC; mean of repeats 5.60, 5.60, 4.40; ITC: 20 mM Hepes pH 7.0, 150 mM NaCl, 25 C; protein 20-30 uM, dsDNA 500-600 uM. As to conditions: protein: recombinant; tags: N-terminal His6 removed by TEV; chain copies: 2; blunt; self-complementary.

Series [7] has as its target T4, NRF1 T109D (human, UniProt Q16656 54-284, T109D).
T4 sequence: T1 sequence with T56D
As to the kind of experiment: ITC; mean of repeats 1.62, 1.87, 1.30; ITC: 20 mM Hepes pH 7.0, 150 mM NaCl, 25 C; protein 20-30 uM, dsDNA 500-600 uM. As to conditions: protein: recombinant; tags: N-terminal His6 removed by TEV; chain copies: 2; blunt; self-complementary.

For series [8], the target named is T5, NRF1 T109A (human, UniProt Q16656 54-284, T109A).
T5 sequence: T1 sequence with T56A
As to the kind of experiment: ITC; mean of repeats 2.80, 2.36, 1.72; ITC: 20 mM Hepes pH 7.0, 150 mM NaCl, 25 C; protein 20-30 uM, dsDNA 500-600 uM. As to conditions: protein: recombinant; tags: N-terminal His6 removed by TEV; chain copies: 2; blunt; self-complementary.

For series [9], the target named is T6, NRF1 DD (human, UniProt Q16656 54-177).
T6 sequence: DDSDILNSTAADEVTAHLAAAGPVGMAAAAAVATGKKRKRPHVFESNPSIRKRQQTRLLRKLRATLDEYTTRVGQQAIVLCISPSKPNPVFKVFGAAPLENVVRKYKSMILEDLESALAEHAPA
As to the kind of experiment: ITC; repeats 1.86, 1.78, 1.96; ITC: 20 mM Hepes pH 7.0, 150 mM NaCl, 25 C; protein 20-30 uM, dsDNA 500-600 uM. To be noted: protein: recombinant; tags: N-terminal His6 removed by TEV (pET28-MHL); chain copies: 2; blunt; self-complementary.

Series [10] deals with T7, NRF1 R244A (human, UniProt Q16656 54-284, R244A).
T7 sequence: T1 sequence with R191A
The series can be described thus: ITC; mean of repeats 6.45, 8.62, 4.92; ITC: 20 mM Hepes pH 7.0, 150 mM NaCl, 25 C; protein 20-30 uM, dsDNA 500-600 uM. As to conditions: protein: recombinant; tags: N-terminal His6 removed by TEV; chain copies: 2; blunt; self-complementary.

For series [11], the target named is T8, NRF1 N242A (human, UniProt Q16656 54-284, N242A).
T8 sequence: T1 sequence with N189A
As to the kind of experiment: ITC; mean of repeats 1.40, 1.89, 1.89; ITC: 20 mM Hepes pH 7.0, 150 mM NaCl, 25 C; protein 20-30 uM, dsDNA 500-600 uM. As to conditions: protein: recombinant; tags: N-terminal His6 removed by TEV; chain copies: 2; blunt; self-complementary.

Changes are numbered by the printed parent chain.

B1: aCGC (dsDNA)
DNA 1: ATACGCATGCGCAT
DNA 2: ATGCGCATGCGTAT
As a reminder, the Kd is the free concentration of one partner at which half of the binding sites on the other are occupied at equilibrium, for simple one-to-one binding. Consider B1, for which the dissociation constant Kd in series [1] was found to be 1270 ± 270 nM.

B2: no spacer (dsDNA)
DNA 1: ATGCGCGCGCAT
DNA 2: ATGCGCGCGCAT
For the molecule B2, in series [1] (self-complementary), the Kd came out at 570 ± 20 nM.

B3: ACACTT spacer (dsDNA)
DNA 1: ATGCGCACACTTGCGCAT
DNA 2: ATGCGCAAGTGTGCGCAT
Turning to B3, the Kd in series [1] was 4360 ± 290 nM.

B4: NRF1 (aa 54–177) (domain or fragment, human, UniProt Q16656 54-177, looked up)
chain: T6 sequence
notes: pET28-MHL vector; His6 tag removed with TEV protease; also called NRF1 DD; dimerization domain; source: E. coli BL21 (DE3), purified (Ni-NTA, anion exchange, gel filtration); not shown: His6, N-terminal, cleaved
Broadly, the stoichiometry N is the number of molecules, sites or subunits per partner or assembly. Turning to B4, the “stoichiometry N” value in series [2] amounted to 2.

B5: NRF1 (aa 98–177) (domain or fragment, human, UniProt Q16656 98-177, looked up)
chain: ESNPSIRKRQQTRLLRKLRATLDEYTTRVGQQAIVLCISPSKPNPVFKVFGAAPLENVVRKYKSMILEDLESALAEHAPA
notes: pET28-MHL vector; His6 tag removed with TEV protease; source: E. coli BL21 (DE3), purified (Ni-NTA, anion exchange, gel filtration); not shown: His6, N-terminal, cleaved
As to B5, the “stoichiometry N” value in series [2] was found to be 2.

B6: A spacer (dsDNA)
DNA 1: ATGCGCAGCGCAT
DNA 2: ATGCGCTGCGCAT
As for B6, the Kd in series [1] was found to be 1620 ± 110 nM.

B7: GtGC (dsDNA)
DNA 1: ATGTGCATGCGCAT
DNA 2: ATGCGCATGCACAT
As for B7, in series [1], the Kd came out at 1810 ± 250 nM.

B8: CG central (dsDNA)
DNA 1: ATGCGCCGGCGCAT
DNA 2: ATGCGCCGGCGCAT
Consider B8, for which, in [1] (self-complementary), the Kd stood at 1090 ± 60 nM.

B9: ACT spacer (dsDNA)
DNA 1: ATGCGCACTGCGCAT
DNA 2: ATGCGCAGTGCGCAT
With B9, the Kd in [1] was found to be 1960 ± 270 nM.

B10: GCtC (dsDNA)
DNA 1: ATGCTCATGCGCAT
DNA 2: ATGCGCATGAGCAT
As for B10, in [1], the Kd is 2230 ± 170 nM.

B11: ACACT spacer (dsDNA)
DNA 1: ATGCGCACACTGCGCAT
DNA 2: ATGCGCAGTGTGCGCAT
Turning to B11, the Kd in series [1] turned out to be 2320 ± 480 nM.

B12: ACGT spacer (dsDNA)
DNA 1: ATGCGCACGTGCGCAT
DNA 2: ATGCGCACGTGCGCAT
B12: the Kd in [1] (self-complementary) worked out at 910 ± 40 nM.

B13: atta/GCGC (dsDNA)
DNA 1: ATATTAATGCGCAT
DNA 2: ATGCGCATTAATAT
Turning to B13, in series [1], the Kd was 3760 ± 230 nM.

B14: GCaC (dsDNA)
DNA 1: ATGCACATGCGCAT
DNA 2: ATGCGCATGTGCAT
As to B14, the Kd in series [1] is 660 ± 40 nM.

B15: NRF1 (aa 54–284) (domain or fragment, human, UniProt Q16656 54-284, looked up)
chain: T1 sequence
notes: pET28-MHL vector; His6 tag removed with TEV protease; also called Nuclear respiratory factor 1; NRF1 dimer; source: E. coli BL21 (DE3), purified (Ni-NTA, anion exchange, gel filtration); not shown: His6, N-terminal, cleaved
On to B15, for which the “stoichiometry N” value in series [2] came to 2.

B16: GCGa (dsDNA)
DNA 1: ATGCGAATGCGCAT
DNA 2: ATGCGCATTCGCAT
As to B16, in [1], the Kd was found to be 3750 ± 690 nM.

B17: 20 bp DNA (dsDNA)
DNA 1: GCGATGCGCATGCGCATCGC
DNA 2: GCGATGCGCATGCGCATCGC
With B17, the Kd in [3] was approximately 300 nM.

B18: ACACTCT spacer (dsDNA)
DNA 1: ATGCGCACACTCTGCGCAT
DNA 2: ATGCGCAGAGTGTGCGCAT
As to B18, in [1], the dissociation constant (Kd) was 4310 ± 280 nM.

B19: GaGC (dsDNA)
DNA 1: ATGAGCATGCGCAT
DNA 2: ATGCGCATGCTCAT
Take B19: in series [1], the Kd was 1380 ± 150 nM.

B20: GCaC/GtGC (dsDNA)
DNA 1: ATGCACATGTGCAT
DNA 2: ATGCACATGTGCAT
Turning to B20, in series [1] (self-complementary), the Kd is 4430 ± 550 nM.

B21: GCGt/aCGC (dsDNA)
DNA 1: ATGCGTATACGCAT
DNA 2: ATGCGTATACGCAT
As to B21, the Kd in series [1] (self-complementary) worked out at 1310 ± 180 nM.

B22: GCGt (dsDNA)
DNA 1: ATGCGTATGCGCAT
DNA 2: ATGCGCATACGCAT
B22: the Kd in series [1] is 1250 ± 110 nM.

B23: tCGC (dsDNA)
DNA 1: ATTCGCATGCGCAT
DNA 2: ATGCGCATGCGAAT
With B23, the Kd in [1] was found to be 2110 ± 800 nM.

B24: 16 bp DNA (dsDNA)
DNA 1: GGTGCGCATGCGCACC
DNA 2: GGTGCGCATGCGCACC
As to B24, the binding result in series [4] is on record as “binds”.

B25: 14 bp AT central (WT) (dsDNA)
DNA 1: ATGCGCATGCGCAT
DNA 2: ATGCGCATGCGCAT
As to B25, the Kd is approximately 1400 nM in [5]; 310 ± 50 nM in [1] (self-complementary); approximately 5200 nM in [6]; approximately 1600 nM in [7]; approximately 2290 nM in series [8]; approximately 1800 nM in [9]. Further, the Kd in series [10] was approximately 6660 nM; in [11], approximately 1730 nM.
